Data from the nanobody polyreactivity screen of Harvey et al. (2022).

Assay: yeast display, Sf9 membrane polyspecificity reagent, FACS + sequencing; frameworks hold sequencing errors
Method in brief: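 A synthetic nanobody library was expressed on Saccharomyces cerevisiae BJ5465 by galactose induction for 36–48 hours. The library was stained for 1 hour at 4 °C with 10% biotinylated, detergent-solubilized Sf9 membrane reagent and enriched with streptavidin microbeads before FACS. Low and high (top ~1%) gates were set on anti-HA fluorescence for expression and streptavidin fluorescence for reagent binding, and each polyreactivity label reflects the gate of origin.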

Row | Sequence | polyreactivity (PSR sort gate)
1 | QVQLVESGGGLVQAGGSLRLSCAASGSIVVNNGMGWYRQAPGKERELVATISERGGGTYYADSVKGRFTISRDNAKNTVYLQMNSLKPEDTAVYYCAARVPRFYFVPLYYWGQGTQVTVSS | low polyreactivity
2 | QVQLVESGGGLVQAGGSLRLSCAASGSIVWYNAMGWYRPAPGKERELVAAITWSGGSTYYADSVKGRFTISRDNAKNTVYLQMNSLKPEDTAVYYCAADVKRDRVWGGDYWGQGTQVTVSS | low polyreactivity
3 | QVQLVESGGGLVQAGGSLRLSCAASGSIYNRYAMGSYRQAPRQERELVAAITQSTDSTYYADSVKGRITISRDNAMITVYLQMNSLKPEDTAVYYCAAYLVYYRPYAYGYWGQGTQVTVSS | low polyreactivity
4 | QVQLVESGGGLVQAGGSLRLSCAASGSIYPNAMGWNRQAPGKERELVAAIRRSSGSTYADSVKGRFTISRDNAKNTVYLQMNSLKPEDTAVYYCAAEWFAQPVGYDYWGQGTQVTVSS | high polyreactivity
5 | QVQLVESGGGLVQAGGSLRLSCAASGSIYPYNAIGLYRQAPGKERELVAAISYRGGRTYYADSVMGRFTISRDNAKNTVYLQKNSLKPEDTAVYYCNADSIYSARGWLYGYWGQGTQVTVSS | low polyreactivity
6 | QVQLVESGGGLVQAGGSLRLSCAASGSIYRYAMGWYRQAPGKERELVAAINFNGGRTYYADSVKGRFTISRDNAKNTVYLQMNSLKPEDTAVYYCAAVRSSNQGGFDYWGHGTQVTVSS | high polyreactivity
7 | QVQLVESGGGLVQAGGSLRLSCAASGSIYTHNAMGWSRQAPGKERELVAAISSGGSTNYADSVKGRFTISRDNAKNTVYLQMNSLKPEDTAVYYCAKSIDGWYWRRRRYDYWGQGTQVTVSS | low polyreactivity
8 | QVQLVESGGGLVQAGGSLRLSCAASGSIYTNAMGRYRQAPGKERELVAAISWSGGRTYYADSVKGRFTISRDNAKNTVYLQMNILKPEDTAVYYCNTRGTRIASGHYYWGQGNQVTVSS | high polyreactivity
9 | QVQLVESGGGLVQAGGSLRLSCAASGSIYTNAMGWYRQAPGKERELVAAISWSGGRTYYADSVKGRFTISRDNAKNTVYLQMNSLKPEDTAVYYCNTRGTRIASGHYYWGQGTQVTVSS | high polyreactivity
10 | QVQLVESGGGLVQAGGSLRLSCAASGSIYTWYAMVWYRQAPGKERELVAAITRGGSTYADSVKGRFTISRDNAKNTVFLQMNSLKPEDTAVYYCATDLQPRSFLYWYNYWGQGTQVTVSS | low polyreactivity
11 | QVQLVESGGGLVQAGGSLRLSCAASGSIYVYYGMGWYRQAPGKERELVAAISSGGSTHYADSVKGRFTISRDNAKNTVYLQMNSLKPEDTAVYYCAADRFFWLRSYPRYYYWGQGTQVTVSS | low polyreactivity
12 | QVQLVESGGGLVQAGGSLRLSCAASGSIYWINTSMGWYIQAPGKERELVAAITWSSGGTYYADSVKGRFTISRDNAKKTVYLQMNSLKPEDTAVYYCAKVRFFWYRMGYWGQGTQVTVSS | high polyreactivity
13 | QVQLVESGGGLVQAGGSLRLSCAASGSIYYAMGWYRQAPGKEREFVAAINSGGSTYYADSVKGRFTISRDNAKNTVYIQMNSLKPEDTAVYYCAKPTYRFYWGDFDYWGQGTQVTVSA | low polyreactivity
14 | QVQLVESGGGLVQAGGSLRLSCAASGSIYYAMGWYRQAPGKESEFVAAINSGGSTYYADSVKGRFTISRDNAKNTVYLQMNSLKPEDTAVYYCAKPTYRFYWGDFDYWGQGTQVTVSS | low polyreactivity
15 | QVQLVESGGGLVQAGGSLRLSCAASGSIYYTNAMGWYRQAPGKERELVAAIRWSGGRTYYADSVKGRFTISRDNAKNTVYLQMNSLKPEDTAVYYCNKVPRTPIPYKYGYWGQGTQVTVSS | high polyreactivity
16 | QVQLVESGGGLVQAGGSLRLSCAASGSIYYYVMGWYRQAPGKERELVAAISRSTGRTYYADSVKGRFTISRDNAKNTVYLQMNSLKPEDTAVYYCNKVVPHKPPTMDYWGQGTQVTVSS | high polyreactivity

Row | Sequence | polyreactivity (PSR sort gate)
17 | QVQLVESGGGLVQAGGSLRLSCAASGSIYYYYAMGWYRQAPGKERELVAAIRRRGGTTYYADSVKGRFTISRDNAKNTVSLQMISLKPEDTAVYYCAARSKSAYWGQGTQVTVSS | high polyreactivity
18 | QVQLVESGGGLVQAGGSLRLSCAASGSLFERYAMGWNRQAPGKEREFVATITSGGGRTYYADSVKGRFTISRDNAKNTVYLQMNSLKPEDTAVYYCNAVYRARSYDYWGQGTQVTVSS | high polyreactivity
19 | QVQLVESGGGLVQAGGSLRLSCAASGSLFGRYTMGWYRQATGKDREFVAAIDRVGITNYADSVKGRFTISRDNAKNTVYLQMNSLKPEDTAVYYCAADYGAIRPRDFIEVPGHYDYWGQGTQVTVSS | low polyreactivity
20 | QVQLVESGGGLVQAGGSLRLSCAASGSLFGYNAIGRYRQARGKERELVAAITGSGGSTYYADSVKGRFTLSRDNAKNTVYFQMNSLKPEDTAVYYCADDLFGGPLGYWDYDYWGQGTQVTVSS | low polyreactivity
21 | QVQLVESGGGLVQAGGSLRLSCAASGSLFNLYAMGWYIQAPGKERELVAAISWSGGRTFYADSVKGRFTISRDNAKNTVFLQMNSLKPEDTAVYDCAARSSRTTRQGYDYWGQGTQVNVSS | high polyreactivity
22 | QVQLVESGGGLVQAGGSLRLSCAASGSLFRYYAMGWYRQAPGTERELVAAITGRGGSTYYADSVKGRFTISRDNAKNTVYLQMNSLKPEDTAVYYCADYIDANVHRFDYWGQGTQVTVSS | low polyreactivity
23 | QVQLVESGGGLVQAGGSLRLSCAASGSLFSTYAMGWYRPAPGKERELVAAIPTSGGRTYYADSVKGRFTISRDNAKNTVYLQMNSLKPEDTAVYDCNAVRGGRYGLDYWGQGTQVTVSS | high polyreactivity
24 | QVQLVESGGGLVQAGGSLRLSCAASGSMFVVYAMGWYRQGPGKERELVAAISWGIGSTYYADSVKGRFTISRDNAKNTVYLQMNSLKPEDTADYYCAADTDIVLYDYWGQGTQVTVSS | low polyreactivity
25 | QVQLVESGGGLVQAGGSLRLSCAASGSMFYYYAMGWYRQAPGKERELVAAISSAGITNYADSVKGRFTISRDNAKNTVYLQMNSLKPEDTAVSYCAAAVFDIYWFLGEAYYFQYDYWGQGTQVTVSS | high polyreactivity
26 | QVQLVESGGGLVQAGGSLRLSCAASGSNFAYNAMGWYRQAPGKERELVAGITTSGSRTYYADSVKGRFTISRDNAKNTVYLQMNSLKPEDTAVYYCAADPYFYPIYDYWGQGTQVTVSS | low polyreactivity
27 | QVQLVESGGGLVQAGGSLRLSCAASGSNFEYYTMGWYRQAPGKEREFVAAITFTGDSTYYADSVKGRFTSSRDNAKNTVYLQMNSLTPEDTAVYYCNDDSDTYDGEYDYWGQGTQVTVSS | low polyreactivity
28 | QVQLVESGGGLVQAGGSLRLSCAASGSNFGYNALGWYRQAPGKDRELVAAITGSGGSTYYADSVKGRFTISRDNAKNTVYLQMNSLKPEDTAVYYCAHDLFGGPLGYWDYDYWGQGTQVTVSS | low polyreactivity
29 | QVQLVESGGGLVQAGGSLRLSCAASGSNFLYNAMGWYRQAPGKERELVAAITQGGGSTYYADSVKGRFTISLDIAKNTVYLQMISLKPEDTAVYYCNKASFYDAHRLDYWGQGTQVTVSS | high polyreactivity
30 | QVQLVESGGGLVQAGGSLRLSCAASGSNFPGYAMGWYRQAPGKERELVAAISTSGGSTYADSVKGRFTISRDNAKNTVYLQMNSLKPEDTAVYYCAATYTYTSPVYYSLDGPWPYDYWGQGTQVTVSS | low polyreactivity
31 | QVQLVESGGGLVQAGGSLRLSCAASGSNFPLNPMGWYRPSPGKERELVAAISSSTGSTSYADSVKGRFTISRDNAKNTVYLQMNSLKPEDTAVYYCAAETPYIVDYWGQGTQVTVSS | high polyreactivity
32 | QVQLVESGGGLVQAGGSLRLSCAASGSNFQNYAMGLYIQAPGKERELVAAISSSGTGTSYADSVKGRFTISRDNAKNTVYLQMNSLKPEDTAVYYCAADYLDYADSAYYYWGQCTQVTVSS | low polyreactivity
